Source: ChEMBL document CHEMBL1140019, “Primary amides as selective inhibitors of cathepsin K” (Bioorg Med Chem Lett, 2007)

Legend:
Settings in all cases: Homo sapiens
[1] = substrate: CSCC[C@H](NC(=O)[C@H](CC(C)C)N[C@@H](c1ccc(-c2ccc(S(C)(=O)=O)cc2)cc1)C(F)(F)F)C(N)=O; experiment: (§1) Ratio of Kcat to Km for humanized rabbit cathepsin K; parameters: unit not given here
[2] = substrate: CC(C)C[C@H](N[C@@H](c1ccc(-c2ccc(S(C)(=O)=O)cc2)cc1)C(F)(F)F)C(=O)NCC(N)=O; experiment: as §1; parameters: unit not given here
[3] = substrate: CC(C)C[C@H](N[C@@H](c1ccc(-c2ccc(S(C)(=O)=O)cc2)cc1)C(F)(F)F)C(=O)N[C@@H](C)C(N)=O; experiment: as §1; parameters: unit not given here
[4] = substrate: Cc1cc(=O)oc2cc(NC(=O)[C@H](CCCN=C(N)N)NC(=O)[C@H](CC(C)C)NC(=O)OCc3ccccc3)ccc12; experiment: as §1; parameters: unit not given here
[5] = substrate: CSCC[C@H](NC(=O)[C@H](CC(C)C)N[C@@H](c1ccc(-c2ccc(S(C)(=O)=O)cc2)cc1)C(F)(F)F)C(N)=O; experiment: (§2) Activity of humanized rabbit cathepsin K at 25 uM
[6] = substrate: CC(C)C[C@H](N[C@@H](c1ccc(-c2ccc(S(C)(=O)=O)cc2)cc1)C(F)(F)F)C(=O)NCC(N)=O; experiment: as §2
[7] = substrate: CC(C)C[C@H](N[C@@H](c1ccc(-c2ccc(S(C)(=O)=O)cc2)cc1)C(F)(F)F)C(=O)N[C@@H](C)C(N)=O; experiment: as §2
[8] = substrate: Cc1cc(=O)oc2cc(NC(=O)[C@H](CCCN=C(N)N)NC(=O)[C@H](CC(C)C)NC(=O)OCc3ccccc3)ccc12; experiment: as §2

B1: Cathepsin K (Homo sapiens), P43235 (protein)
chain: MWGLKVLLLPVVSFALYPEEILDTHWELWKKTHRKQYNNKVDEISRRLIWEKNLKYISIHNLEASLGVHTYELAMNHLGDMTSEEVVQKMTGLKVPLSHSRSNDTLYIPEWEGRAPDSVDYRKKGYVTPVKNQGQCGSCWAFSSVGALEGQLKKKTGKLLNLSPQNLVDCVSENDGCGGGYMTNAFQYVQKNRGIDSEDAYPYVGQEESCMYNPTGKAAKCRGYREIPEGNEKALKRAVARVGPVSVAIDASLTSFQFYSKGVYYDESCNSDNLNHAVLAVGYGIQKGNKHWIIKNSWGENWGNKGYILMARNKNNACGIANLASFPKM
- kcat/Km [1]: 0.54
- kcat/Km [2]: 0.19
- kcat/Km [3]: 0.26
- kcat/Km [4]: 0.04
- kcat [5]: 3.25 s⁻¹
- Km [6]: 0.119 µM
- kcat [6]: 23.2 s⁻¹
- Km [7]: 0.087 µM
- kcat [7]: 23.2 s⁻¹
- Km [8]: 2 µM
- kcat [8]: 79 s⁻¹
